From paper PMC4854488 (Biochemistry, 2016) come the findings set out here.

In series [1] the target is T1, oxalate decarboxylase (OxDC) (Bacillus subtilis, UniProt O34714, DEL162-162).
T1 construct: C-terminal His6 tag kept, expressed in E. coli BL21(DE3), Mn-containing (Co(II)-substituted for the crystal; model residues 6-382)
The experiment in a line: X-ray crystal structure, […] Å. Format: binding. The conditions noted are these: Co(II)-substituted ΔE162 variant; oxalate end-on (monodentate) on Co(II) in N-terminal domain; cocrystallised, well pH 9.5, 17 °C.

Substrate in the series “purified protein”: O=C(O)C(=O)O
As to the kind of experiment: purified protein. The conditions noted are these: 25 °C.

Where [2] appears, read: ΔE162 variant, decarboxylase activity, Mn enzyme (1.3 Mn/monomer), 100 mM citrate pH 4.2, 300 uM o-phenylenediamine, pH 4.2.
Where [3] appears, read: ΔE162 variant, oxidase activity, Mn enzyme (1.3 Mn/monomer), 50 mM succinate pH 4.0, O2 co-substrate, pH 4.0.
Where [4] appears, read: decarboxylase activity, Mn enzyme (1.4 Mn/monomer), 100 mM citrate pH 4.2, 300 uM o-phenylenediamine, pH 4.2.
The mark [5] stands for this setting: oxidase activity, Mn enzyme (1.4 Mn/monomer), 50 mM succinate pH 4.0, O2 co-substrate, pH 4.0.
The mark [6] stands for this setting: DDSN variant, decarboxylase activity, Mn enzyme (1.5 Mn/monomer), 100 mM citrate pH 4.2, 300 uM o-phenylenediamine, pH 4.2.
Setting [7] is: DESN variant, decarboxylase activity, Mn enzyme (1.5 Mn/monomer), 100 mM citrate pH 4.2, 300 uM o-phenylenediamine, pH 4.2.
Setting [8] is: DESN variant, oxidase activity, Mn enzyme (1.5 Mn/monomer), 50 mM succinate pH 4.0, O2 co-substrate, pH 4.0.
The mark [9] stands for this setting: DDNS variant, decarboxylase activity, Mn enzyme (1.5 Mn/monomer), 100 mM citrate pH 4.2, 300 uM o-phenylenediamine, pH 4.2.
The mark [10] stands for this setting: DENS variant, decarboxylase activity, Mn enzyme (1.6 Mn/monomer), 100 mM citrate pH 4.2, 300 uM o-phenylenediamine, pH 4.2.

Positions count from the first letter of the chain named. Numbers in names are those of the source.

As for `O=C(O)C(=O)O` [oxalate], the “X-ray crystal structure, 2.6 Å” value in series [1] is on record as “we observed an oxalate molecule bound within the N-terminal domain”.

B1: oxalate decarboxylase (OxDC) (Bacillus subtilis subsp. subtilis str. 168; DEL162-162) (protein)
chain: MKKQNDIPQPIRGDKGATVKIPRNIERDRQNPDMLVPPETDHGTVSNMKFSFSDTHNRLEKGGYAREVTVRELPISENLASVNMRLKPGAIRELHWHKEAEWAYMIYGSARVTIVDEKGRSFIDDVGEGDLWYFPSGLPHSIQALEEGAEFLLVFDDGSFSNSTFQLTDWLAHTPKEVIAANFGVTKEEISNLPGKEKYIFENQLPGSLKDDIVEGPNGEVPYPFTYRLLEQEPIESEGGKVYIADSTNFKVSKTIASALVTVEPGAMRELHWHPNTHEWQYYISGKARMTVFASDGHARTFNYQAGDVGYVPFAMGHYVENIGDEPLVFLEIFKDDHYADVSLNQWLAMLPETFVQAHLDLGKDFTDVLSKEKHPVVKKKCSK
The Km is the substrate concentration at which the rate is half of its maximum. By kcat is commonly meant the maximal rate divided by the concentration of active sites. For orientation: kcat/Km means the second-order rate constant that governs catalysis at low substrate concentration. B1: in “purified protein” (setting [2]), the Km is recorded as 1.6 ± 0.7 mM, the kcat is 0.01 s⁻¹ and the kcat/Km is 5 M⁻¹ s⁻¹. In addition, in the series “purified protein” (setting [3]), the Michaelis constant (Km) amounted to 3 ± 1 mM, the kcat was found to be 0.05 s⁻¹ and the kcat/Km turned out to be 14 M⁻¹ s⁻¹.

B2: oxalate decarboxylase (OxDC) (Bacillus subtilis subsp. subtilis str. 168) (protein)
chain: MKKQNDIPQPIRGDKGATVKIPRNIERDRQNPDMLVPPETDHGTVSNMKFSFSDTHNRLEKGGYAREVTVRELPISENLASVNMRLKPGAIRELHWHKEAEWAYMIYGSARVTIVDEKGRSFIDDVGEGDLWYFPSGLPHSIQALEEGAEFLLVFDDGSFSENSTFQLTDWLAHTPKEVIAANFGVTKEEISNLPGKEKYIFENQLPGSLKDDIVEGPNGEVPYPFTYRLLEQEPIESEGGKVYIADSTNFKVSKTIASALVTVEPGAMRELHWHPNTHEWQYYISGKARMTVFASDGHARTFNYQAGDVGYVPFAMGHYVENIGDEPLVFLEIFKDDHYADVSLNQWLAMLPETFVQAHLDLGKDFTDVLSKEKHPVVKKKCSK
For B2, in the series “purified protein” (setting [4]), the Michaelis-Menten constant (Km) was 8 ± 1 mM, the catalytic constant (kcat) was determined as 60 s⁻¹ and the specificity constant (kcat/Km) amounted to 5700 M⁻¹ s⁻¹. For the same molecule, in the series “purified protein” (setting [5]), the Km is reported as 5.0 ± 0.2 mM, the kcat is 0.13 s⁻¹ and the kcat/Km worked out at 19 M⁻¹ s⁻¹.

B3: oxalate decarboxylase (OxDC) (Bacillus subtilis subsp. subtilis str. 168; E162D/N163S/S161D/S164N) (protein)
chain: B2 chain with S161D, E162D, N163S, S164N
For the molecule B3, in the series “purified protein” (setting [6]), the Km is given as 3 ± 1 mM, the kcat worked out at 9 s⁻¹ and the kcat/Km is 2400 M⁻¹ s⁻¹.

B4: oxalate decarboxylase (OxDC) (Bacillus subtilis subsp. subtilis str. 168; N163S/S161D/S164N) (protein)
chain: B2 chain with S161D, N163S, S164N
On to B4, for which, in the series “purified protein” (setting [7]), the Michaelis constant (Km) is 6 ± 1 mM, the catalytic constant (kcat) came out at 40 s⁻¹ and the catalytic efficiency (kcat/Km) is 4400 M⁻¹ s⁻¹. Further, in “purified protein” (setting [8]), the Km is recorded as 11 ± 2 mM, the kcat was 0.1 s⁻¹ and the specificity constant (kcat/Km) turned out to be 11 M⁻¹ s⁻¹.

B5: oxalate decarboxylase (OxDC) (Bacillus subtilis subsp. subtilis str. 168; E162D/S161D) (protein)
chain: B2 chain with S161D, E162D
As for B5, in “purified protein” (setting [9]), the Michaelis constant (Km) is 10 ± 2 mM, the catalytic constant (kcat) is 45 s⁻¹ and the kcat/Km stood at 2900 M⁻¹ s⁻¹.

B6: oxalate decarboxylase (OxDC) (Bacillus subtilis subsp. subtilis str. 168; S161D) (protein)
chain: B2 chain with S161D
In the case of B6, in “purified protein” (setting [10]), the Michaelis constant (Km) stood at 10 ± 1 mM, the kcat worked out at 63 s⁻¹ and the specificity constant (kcat/Km) came to 3900 M⁻¹ s⁻¹.
